“Also recorded” adds a separate entry of the source.
B1: GST-PKCζ wild type (1-592) (protein)
chain: MPSRTGPKMEGSGGRVRLKAHYGGDIFITSVDAATTFEELCEEVRDMCRLHQQHPLTLKWVDSEGDPCTVSSQMELEEAFRLARQCRDEGLIIHVFPSTPEQPGLPCPGEDKSIYRRGARRWRKLYRANGHLFQAKRFNRRAYCGQCSERIWGLARQGYRCINCKLLVHKRCHGLVPLTCRKHMDSVMPSQEPPVDDKNEDADLPSEETDGIAYISSSRKHDSIKDDSEDLKPVIDGMDGIKISQGLGLQDFDLIRVIGRGSYAKVLLVRLKKNDQIYAMKVVKKELVHDDEDIDWVQTEKHVFEQASSNPFLVGLHSCFQTTSRLFLVIEYVNGGDLMFHMQRQRKLPEEHARFYAAEICIALNFLHERGIIYRDLKLDNVLLDADGHIKLTDYGMCKEGLGPGDTTSTFCGTPNYIAPEILRGEEYGFSVDWWALGVLMFEMMAGRSPFDIITDNPDMNTEDYLFQVILEKPIRIPRFLSVKASHVLKGFLNKDPKERLGCRPQTGFSDIKSHAFFRSIDWDLLEKKQALPPFQPQITDDYGLDNFDTQFTSEPVQLTPDDEDAIKRIDQSEFEGFEYINPLLLSTEESV

Experiments:
PDK1 = test: Protein kinase activity assay, PDK1; assay type: biochemical, human; details: PDK1 wt / PDK1 50-359
Experimental: For the expression and purification of protein kinases fused to GST, pEBG-2T derived plasmids were transfected into 8×14.5 cm dishes containing HEK293 cells using the PEI method ([…] and […]/14.5 cm dish). The cells were lysed after 48 h in a buffer containing 50 mM Tris-HCl pH 7.5, 1 mM EGTA, 1 mM EDTA, 1% (w/v) Triton X-100, 1 mM sodium orthovanadate, […], 5 mM sodium pyrophosphate, 0.27 M sucrose, 0.1% β-mercaptoethanol, and 1 tablet of protease inhibitor cocktail per 50 ml of buffer. Lysates were frozen in liquid nitrogen and kept at −80° C. until required. Purification involved incubation of the cleared lysate with glutathione sepharose, followed by 2 washes with 0.5 M NaCl in lysis buffer, 8 washes with a buffer containing 50 mM Tris-HCl, 0.1 mM EGTA and 0.1% β-mercaptoethanol (buffer A), and a last wash with buffer A supplemented with 0.26 M sucrose. Elution was performed with this last buffer containing 20 mM glutathione and the GST-fusion protein was cleared from resin by filtration through a “SigmaPrep” spin column (Sigma). GST-fusion proteins were aliquoted, snap frozen in liquid nitrogen and kept at −80° C. until use. Purity at this stage was above 85% as estimated by SDS-PAGE and staining with Coomassie Brilliant Blue R250. PRK2 was expressed from pEBG-2T-PRK2 (Balendran, A. et al. J Biol Chem 275, 20806-13. (2000)), SGK1 from pEBG-2T-SGK1-ΔN[Ser422Asp], PKBα from pEBG-2T-PKBα[Ser473Asp] (Biondi et al., D. R. Embo J 20, 4380-90. (2001)), PKCl from pEBG-2T-PKCl and PKCζ from pEBG-2T-PKCζ. PDK1 and S6K1 were expressed in Sf9 insect cells using a baculovirus expression system from pFastBac-PDK1 and pFastBac-56K1-T2[Thr412Glu].
The protein kinase activity assays were performed essentially as previously described (Engel, M. et al. Embo J 25, 5469-80 (2006)). The assays were done in a 96-well format and 4 μl aliquots spotted on P81 phospho-cellulose papers (Whatman) using epMotion 5070 (Eppendorf), washed in 0.01% phosphoric acid, dried, and then exposed and analyzed using PhosphoImager technology (FLA-9000 Starion, Fujifilm). Atypical PKC (aPKC) activity assays were performed in a total volume of 20 μl containing 50 mM Tris-HCl pH 7.5, 0.05 mg/ml BSA, 0.1% (v/v) 2-mercaptoethanol, 10 mM MgCl2, 100 μM [γ^32P]ATP (5-50 cpm/pmol), 0.003% Brij, 30-50 ng of aPKC, and MBP (10 μM) or PSRtide (100 μM) as the substrate. After 15 min pre-incubation, the kinase reaction was started by addition of 6 μl of an ATP-Mg mix. When required, lipid activator (LA) phosphatidylserine (100 ng) or PKC lipid activator mix (1×) was included in the pre-incubation. Low basal activity and consistent activation of 1-592 PKCζ and 498 PKCζ by LA was obtained when the pre-incubation time was started by addition of the whole mix on the enzyme.
The substrates were T308tide (200 μM) for PDK1, Kemptide (100 μM) for PKA, and Crosstide (100 μM) for SGK, PKB, S6K, and PRK2. The activity assays for PKCα, β, θ, and δ were performed in the presence of PKC lipid activator mix (1×) using 3 μM of histone H1 as substrate.
The activity assays were performed in duplicates or triplicates (in the case of the temperature stability assay) with less than 10% difference between the duplicate pairs. The activity assays shown were repeated at least twice with similar results. Moreover, most of the assays shown were repeated multiple times with enzymes from independent purifications with similar results. Representative experiments are shown. […]

[1] = target: T1, GST-C1 (PKCl 131-186) / His-PKCl Δ223 interaction (Homo sapiens, UniProt P41743); test: AlphaScreen interaction assay GST-C1 / His-PKCι Δ223; assay type: binding
T1 sequence (P41743 233-596): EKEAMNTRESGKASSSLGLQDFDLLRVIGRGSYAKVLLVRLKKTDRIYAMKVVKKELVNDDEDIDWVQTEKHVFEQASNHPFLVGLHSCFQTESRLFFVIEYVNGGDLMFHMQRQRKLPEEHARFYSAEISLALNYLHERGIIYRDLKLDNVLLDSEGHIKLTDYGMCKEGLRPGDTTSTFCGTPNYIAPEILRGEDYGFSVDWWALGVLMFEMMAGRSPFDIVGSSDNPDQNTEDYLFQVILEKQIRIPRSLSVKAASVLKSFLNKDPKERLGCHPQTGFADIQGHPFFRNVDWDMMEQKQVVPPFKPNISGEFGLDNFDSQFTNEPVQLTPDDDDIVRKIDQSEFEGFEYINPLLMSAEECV
Description: In FIG. 11 evidence is provided that the C1 domain directly interacts with the catalytic domain of PKCz. A novel assay is set-up to investigate the interaction between the C1 domain constructs fused to GST and the catalytic domain of atypical PKCs containing a 6×His-tag. The assay is based on the alphascreen technology using a donor bead coupled to anti-GST antibodies (to bind the GST-PSR-C1 or GST-C1 constructs derived from PKCl) and Ni-NTA acceptor beads that bind to His-PKCl Δ223 (catalytic domain). The interaction is measured by the emission of light from the acceptor beads that happens when the two beads are in close proximity. GST-PSR-C1 readily interacted with His-PKCl Δ223. […] PIFtide and HM polypeptides are known to interact with the PIF-pocket of AGC kinases. Thus, the assay provides evidence that polypeptides binding to the PIF-pocket displace the interaction. In addition, small compounds that inhibit both atypical PKC isoforms and have been co-crystallized with PDK1-PKCz chimera (e.g. PS315), also displace the interaction between the C1 domain and the catalytic domain. Together, the data highlight the important role of the PIF-pocket in the regulation of PKCs and the need to develop tools to improve the methods for drug development to the PIF-pocket on AGC kinases. […] Indeed modeling of the pseudosubstrate into the substrate-binding site, allows the interaction of the C1 domain with the external part of the helix α-C that is a main component of the PIF-pocket (FIG. 13). The invention further provides a method for the screening for compounds that interact with the PIF-pocket on PKC isoforms, PDK1 chimeras or other AGC kinases, as well as kits for said method and compounds identified by said method (aspects (10) to (12) of the invention).
(§1) The AlphaScreen assay was performed according to the manufacturer's general protocol (Perkin Elmer). […] Proteins and beads were incubated in the dark for 1 h 30 min at room temperature and the emission of light from the acceptor beads was measured in the EnVision reader (Perkin Elmer) and analyzed using the EnVision manager software.

[2] = target: T2, GST-PSR-C1 (PKCl 100-185) / His-PKCl Δ223 interaction (Homo sapiens, UniProt P41743); test: AlphaScreen interaction assay GST-PSR-C1 / His-PKCι Δ223; assay type: binding
T2 sequence (P41743 233-596): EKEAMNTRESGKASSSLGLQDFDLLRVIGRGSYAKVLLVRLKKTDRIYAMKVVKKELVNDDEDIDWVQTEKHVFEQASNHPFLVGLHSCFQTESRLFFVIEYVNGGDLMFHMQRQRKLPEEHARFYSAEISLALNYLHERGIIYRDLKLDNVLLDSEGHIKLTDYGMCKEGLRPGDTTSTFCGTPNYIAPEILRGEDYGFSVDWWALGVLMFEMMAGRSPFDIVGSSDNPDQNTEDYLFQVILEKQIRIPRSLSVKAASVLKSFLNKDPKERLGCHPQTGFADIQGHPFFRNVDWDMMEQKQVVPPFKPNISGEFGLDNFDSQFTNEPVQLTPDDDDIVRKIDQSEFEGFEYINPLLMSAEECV
Description: In FIG. 11 evidence is provided that the C1 domain directly interacts with the catalytic domain of PKCz. A novel assay is set-up to investigate the interaction between the C1 domain constructs fused to GST and the catalytic domain of atypical PKCs containing a 6×His-tag. The assay is based on the alphascreen technology using a donor bead coupled to anti-GST antibodies (to bind the GST-PSR-C1 or GST-C1 constructs derived from PKCl) and Ni-NTA acceptor beads that bind to His-PKCl Δ223 (catalytic domain). The interaction is measured by the emission of light from the acceptor beads that happens when the two beads are in close proximity. GST-PSR-C1 readily interacted with His-PKCl Δ223. […] PIFtide and HM polypeptides are known to interact with the PIF-pocket of AGC kinases. Thus, the assay provides evidence that polypeptides binding to the PIF-pocket displace the interaction. […]
as §1

[3] = target: T3, PSRtide (biotin-KSIYRRGSRRWRKLYRA)
T3 chain: KSIYRRGSRRWRKLYRA

Molecule	Effect on PDK1 activity (PDK1)	Effect on interaction of GST-C1 with His-PKCι Δ223 [1]	Effect on interaction of GST-PSR-C1 with His-PKCι Δ223 [2]	specific activity (phosphorylation of PSRtide by full length PKCζ) [3]
O=C(O)CC(Cc1nc2cc(Cl)ccc2[nH]1)c1ccc(Cl)cc1 (stereo not shown) [PS114]	Activation	–	–	–
RTWALCGTPEYLAPEIILKK (activation loop of PKA)	–	not	–	–
VGNQLPFIGFT(P)YFRENL (VGNQLPFIGFTYFRENL) [ROCK-pHM, ROCK HM peptide phosphorylated at the HM phosphorylation site]	–	not and not able to displace	not and not able to displace	–
VGNQLPFIGFTYFRENL (ROCK-HM)	–	displaced; also recorded: strongly diminished	displaced; also recorded: strongly diminished	–
B1	–	–	–	60 to 80 nmol/mg/min

Source: patent US20140017701A1, “CHIMERIC PDK1 KINASES” (priority 2011, published 2014)
